This note sets out measurements from patent US20190359693A1 (Janssen / Centocor, published 2019).

Test [1] has as its target T1, HA of H3N2 A/HK/1/68 (influenza A virus, UniProt Q91MA7 17-530). Briefly: BLI (Octet). (In general: Biolayer interferometry detects binding as a change in optical thickness at a sensor tip.)
Test [2] has as its target T1, HA of H3N2 A/HK/1/68. Nature of the test: cell-based or functional assay.
The target of test [3] is HA of H4 A/WF/HK/MPA892/06 (influenza A virus). Nature of the test: cell-based or functional assay.
The target in test [4] is HA of H7N7 A/PR8 H7N7-NY (influenza A virus). Nature of the test: cell-based or functional assay.
Test [5] concerns the target HA of H10N7 A/Chick/Germany/N/49 (influenza A virus). Briefly: cell-based or functional assay.
For test [6], the target named is hemagglutinin (HA) of influenza virus H3N2 A/Wisconsin/67/05 (influenza A virus). Briefly: cell-based or functional assay.
Test [7] deals with hemagglutinin (HA) of influenza virus H1N1 A/California/07/09 (influenza A virus). Briefly: cell-based or functional assay.
In test [8] the target is hemagglutinin (HA) of influenza virus H1N1 A/Puerto Rico/8/34-MA (influenza A virus). Nature of the test: cell-based or functional assay.
Test [9] concerns the target hemagglutinin (HA) of influenza virus H5N1 A/Vietnam/1194/04 (influenza A virus). Nature of the test: cell-based or functional assay.
For test [10], the target named is recombinant HA of H1N1 A/New Caledonia/20/1999 (influenza A virus, UniProt Q289M7 18-565). Nature of the test: biolayer interferometry (Octet), steady-state fit, geometric mean.
The target in test [11] is HA of H3N2 A/HK/1/68-MA (influenza A virus). Nature of the test: cell-based or functional assay.
Test [12] has as its target HA of H2N2 A/Guiyang/1/57 (influenza A virus). Briefly: cell-based or functional assay.
In test [13] the target is HA of H2N2 A/WF/HK/MPU3156/05 (influenza A virus). Briefly: cell-based or functional assay.
The target in test [14] is HA of H4 A/WF/HK/MPA892/06 (influenza A virus). Nature of the test: cell-based or functional assay. This is another data set of the same source.
The target in test [15] is HA of H10N7 A/Chick/Germany/N/49 (influenza A virus). Nature of the test: cell-based or functional assay. This is another data set of the same source.
Test [16] deals with HA of H1N1 A/Puerto Rico/8/34-MA (influenza A virus). Nature of the test: cell-based or functional assay.
For test [17], the target named is HA of H3N2 A/HK/1/68-MA (influenza A virus). Nature of the test: cell-based or functional assay. The source holds these as a separate data set.
For test [18], the target named is HA of H7N7 A/Netherlands/219/2003 (influenza A virus, UniProt P36346 19-563). Briefly: AlphaLISA competition vs CR9114. Background: Bead proximity is the source of the signal in Alpha formats.
Test [19] deals with HA of H3N2 A/Wisconsin/67/2005 (influenza A virus). Briefly: cell-based or functional assay.
Test [20] has as its target HA of B/Malaysia/2506/04 (Victoria) (influenza B virus). Nature of the test: cell-based or functional assay.
Test [21] has as its target HA of B/Harbin/7/94 (Yamagata) (influenza B virus). Nature of the test: cell-based or functional assay.
Test [22] has as its target T2, HA of B/Lee/40 (influenza B virus, UniProt P03460 16-552). Briefly: cell-based or functional assay.
In test [23] the target is HA of B/Harbin/7/94 (Yamagata) (influenza B virus). Briefly: cell-based or functional assay. This is another data set of the same source.
Test [24] has as its target HA of H5N1 A/Vietnam/1194/04 (influenza A virus). Briefly: cell-based or functional assay.
The target of test [25] is T2, HA of B/Lee/40. Briefly: cell-based or functional assay. The source holds these as a separate data set.
Test [26] concerns the target HA of H5N1 A/PR8 H5N1 HK97 (influenza A virus). Briefly: cell-based or functional assay.
Test [27] deals with HA of H3N2 A/Panama/2007/99 (influenza A virus). Briefly: cell-based or functional assay.
The target in test [28] is HA of H4 A/WF/HK/MPA892/06 (influenza A virus). Briefly: cell-based or functional assay. The source holds these as a separate data set.
For test [29], the target named is HA of H7N7 A/PR8 H7N7-NY (influenza A virus). Briefly: cell-based or functional assay. The source holds these as a separate data set.
Test [30] concerns the target HA of H10N7 A/Chick/Germany/N/49 (influenza A virus). Nature of the test: cell-based or functional assay. This is another data set of the same source.
The target in test [31] is HA of H7N9 A/Anhui/1/13 (influenza A virus). Briefly: cell-based or functional assay.
In test [32] the target is T1, HA of H3N2 A/HK/1/68. Briefly: cell-based or functional assay. This is another data set of the same source.

Read-outs that look alike come from different tables or passages of the source.

B1: SD1045 (VHH)
VHH: EVQLVESGGGLVQAGGSLRLSCAASGSSFSINVMGWYRQAPGKQREMVATITYGGSTNYVDSVKGRFTISRDNAKNTVYLQMNSLKPEDTAVYYCNSRLAQINYWGQGTQVTVSS
notes: llama sdAb
Turning to B1, the binding result in test [1] was “no binding (tested: HA 20 µg/mL)”. Further, the VNA titer is above 1000 nM in test [2], 492 nM in test [3], above 1000 nM in [4] and 985 nM in [5].

B2: MD1212 (VHH)
chain: EVQLVESGGGLVQPGGSLRLSCAVSISIFDIYAMDWYRQAPGKQRDLVATSFRDGSTNYADSVKGRFTISRDNAKNTLYLQMNSLKPEDTAVYLCHVSLYRDPLGVAGGMGVYWGKGALVTVSSAAAGGGGSGGGGSGGGGSGGGGSGGGGSGGGGSGGGGSEVQLVESGGGLVQPGGSLRLSCAVSISIFDIYAMDWYRQAPGKQRDLVATSFRDGSTNYADSVKGRFTISRDNAKNTLYLQMNSLKPEDTAVYLCHVSLYRDPLGVAGGMGVYWGKGALVTVSS
For orientation: Kd means a measure of binding affinity in units of concentration. As for B2, the neutralization titer in test [6] was determined as 49.5 nM; in test [7] it was 3.7 nM; in test [8] it was 11.7 nM; in test [9], 14.8 nM. In test [10], the Kd turned out to be 1.4 nM.

B3: SD1034 (VHH)
VHH: EVQLVESGGGLVQAGGSLRLSCAASGTIFGIRVNTMGWYRQAPGEQRELVATITRSGGTNYADSVKDRFTISGDFAKDTVYLQMMHLKPEDTAVYYCNGRWALTDYWGQGTQVTVSS
Molecule B3 had a VNA titer in test [11] above 1000 nM.

B4: MD1211 (bispecific antibody)
chain: EVQLVESGGGLVQPGGSLRLSCAVSISIFDIYAMDWYRQAPGKQRDLVATSFRDGSTNYADSVKGRFTISRDNAKNTLYLQMNSLKPEDTAVYLCHVSLYRDPLGVAGGMGVYWGKGALVTVSSAAAGGGGSGGGGSGGGGSGGGGSGGGGSGGGGSGGGGSEVQLVESGGGLVQAGGSLKLSCAASGRTYAMGWFRQAPGKEREFVAHINALGTRTYYSDSVKGRFTISRDNAKNTEYLEMNNLKPEDTAVYYCTAQGQWRAAPVAVAAEYEFWGQGTQVTVSS
Take B4: the neutralization titer amounted to 19.3 nM in test [6], 4 nM in test [7], 9.9 nM in test [8] and 7.6 nM in test [9]. The Kd in test [10] amounted to 1.7 nM.

B5: SD1076 (VHH)
VHH: EVQLVESGGGLVQAGGSLTLSCAGSGFAFSIATMGWYRQAPGKQRELVADITSGGSTNYADSVKGRFTISRDNAKNTVYLQMNSLKPEDTAVYYCNADSLATGWRQYSYWGKGTQVTVSS
notes: llama sdAb
Turning to B5, the binding result in test [1] was “no binding (tested: HA 20 µg/mL)”. Also, the VNA titer in test [11] is above 1000 nM; in [12], above 1000 nM; in [13], 38.5 nM; in test [14], above 1000 nM; in test [15] it was above 1000 nM.

B6: SD1014 (VHH)
VHH: EVQLVESGGGLVQAGGSLTLSCAASGRTYAMAWFRQAPGKEREFVAHINALGTRTYYSDSVKGRFTISRDNAKNTEYLQMNSLNPEDTAVYYCAAGGQWRAAPVADAAQYDFWGQGTQVTVSS
notes: llama sdAb
The pIC50 is the IC50 on a negative log10 scale, so that one unit is a factor of ten. B6: the VNA titer in test [16] and in test [17] was above 1000 nM in each case. The pIC50 in test [18] was 9.2.

B7: SD1017 (VHH)
VHH: EVQLVESGGGLVQAGGSLRLSCAASGRTYAMAWFRQAPGKEREFVAHINALGTRAYYSDSVEGRFTISRDNAKNTGYLQMNSLEPEDTAVYVCAAGGQWRAAPVADAAQYDFWGQGTQVTVSS
As for B7, the VNA titer in test [16], in test [17] and in test [19] was above 1000 nM in each case.

B8: MD1210 (bispecific antibody)
chain: EVQLVESGGGLVQAGGSLKLSCAASGRTYAMGWFRQAPGKEREFVAHINALGTRTYYSDSVKGRFTISRDNAKNTEYLEMNNLKPEDTAVYYCTAQGQWRAAPVAVAAEYEFWGQGTQVTVSSAAAGGGGSGGGGSGGGGSGGGGSGGGGSGGGGSGGGGSEVQLVESGGGLVQPGGSLRLSCAVSISIFDIYAMDWYRQAPGKQRDLVATSFRDGSTNYADSVKGRFTISRDNAKNTLYLQMNSLKPEDTAVYLCHVSLYRDPLGVAGGMGVYWGKGALVTVSS
Turning to B8, the neutralization titer worked out at 118 nM in test [6], 2.5 nM in test [7], 21.9 nM in test [8] and 21.4 nM in test [9]. Moreover, in [10], the Kd is 0.7 nM.

B9: SD1083 (VHH)
VHH: EVQLVESGGGLVQPGGSLRLSCAATGFTLENKAIGWFRQTPGSEREGVLCISKSGSWTYYTDSMRGRFTISRDNAENTVYLQMDSLKPEDTAVYYCATTTAGGGLCWDGTTFSRLASSWGQGTQVTVSS
As to B9, the VNA titer was 294 nM in test [20], 259 nM in test [21] and 217 nM in [22]. For the same molecule, the hemagglutination inhibition titer in test [23], in test [24] and in test [25] was above 50 µg/mL in each case.

B10: SD1048 (VHH)
VHH: EVQLVESGGGVVQPGGSLRLSCVASGRTSSMYSIGWFRQAPGKEREFVAVIGWYSGRTFYTDSMKGRFTISRDNARNTVYLQMNSLKPEDTAVYYCAAANGPLRLSNQADYWGQGTQVTVSS
On to B10, for which the VNA titer was above 1000 nM in test [16]; above 1000 nM in [26]; 110 nM in test [17]; above 1000 nM in test [19]; above 1000 nM in [27]; 34.3 nM in test [28]. The VNA titer amounted to 93 nM in test [29] and 34.3 nM in [30].

B11: SD1046 (VHH)
VHH: EVQLVESGGGLVQAGDSLRISCAASGRTLSIYSMGWFRQAPGKEREFVATIGWNSGRTFYPDSLKGRFTISRDNARNTLYLQMNNLRPEDTAVYYCAAAKGPLRLSSQADYWGQGTQVTVSS
Take B11: the VNA titer in test [31] is 46.1 nM; in test [16], above 1000 nM; in [26], above 1000 nM; in test [17] it was 26.4 nM; in test [32], 202 nM; in [19] it was above 1000 nM. Also, the VNA titer in test [27] is above 1000 nM; in test [28], 34.3 nM; in test [29], 25.9 nM; in [30] it was 34.3 nM.

B12: SD1087 (VHH)
VHH: EVQLVESGGGLVQPGGSLRLSCVISGLSLDTYAVGWFRQAPGKEREGITCISSGHGMTYYADSVKGRFTVSTDNAKNTVYLQMNGLQPEDTARYYCATESRYYCSDNWPAPQRYIYWGQGTQVTVSS
Take B12: the VNA titer in test [20] is 79.1 nM; in [21], 503 nM; in test [22], 6.5 nM. The hemagglutination inhibition titer in [23], in test [24] and in test [25] was above 50 µg/mL each time.
